The data set has as its system Bacillus subtilis. Nature of the data set: cleaved RNA product abundance (RNA/gDNA barcode ratio) relative to median wild-type variant (ratio to wild type); higher = more accumulation of the downstream cleavage product. As to conditions: cleavage site: cggR-gapA (positions -7 to +36 mutated). The procedure: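 MPRA in B. subtilis. Mutagenized RNase Y cleavage-site regions (9% mutation rate) were inserted into a barcoded reporter mRNA (truncated aprE or tetM). Cells were grown in LB at 37°C to OD600 0.3. The cleaved RNA isoform was gel-purified and its barcodes counted; the RNA:gDNA barcode ratio was normalised to the median wild-type variant, and the median over barcodes is reported per variant. The printed sequence is the variable window only; the reporter flanks are not printed.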

[1] abbreviates: experiment (reporter, strain, medium): exp 4a: truncated aprE reporter, strain BJT201 with 2% xylose (RNase J1 expressed).
The mark [2] stands for this setting: experiment (reporter, strain, medium): exp 2b: truncated aprE reporter, strain BJT200.
[3] abbreviates: experiment (reporter, strain, medium): exp 6: tetM reporter, strain 168.

Take “ACAGACGAAGGAGCCGCAAAGAAGTAATTAAGGGATGAATAATCCCTCAACATAAATATCTCTCACTTATTTAAA”: the “cleaved RNA product abundance” value under setting [1] was 0.21.
Turning to “ACAGACGAAGGAGCCGCAAAGAAGTAATTAAGGGATGAATAATCCCTCAATATAAAAATCTCTCACTTATTTAAA”, the “cleaved RNA product abundance” value under setting [1] amounted to 0.282.
For “ACAGACGAAGGAGCCGCAAAGAAGTAATTAAGGGATGAATAATCCCTCAATATAAACATCTCTCACTTATTTAAA”, the “cleaved RNA product abundance” value under setting [1] worked out at 0.264.
Same read-out and setting: the same measure for “ACAGACGAAGGAGCCGCAAAGAAGTAATTAAGGGATGAATAATCCCTCAATATAAATAGCTCTCACTTATTTAAA”: 0.15.
For “ACAGACGAAGGAGCCGCAAAGAAGTAATTAAGGGATGAATAATCCCTCAATATAAATATCTCTCACTTATTTAAA”, the “cleaved RNA product abundance” value runs as follows: under setting [2], 0.241; under setting [1], 0.333; under setting [3], 0.32.
Regarding “ACAGACGAAGGAGCCGCAAAGAAGTAATTAAGGGATGAATAATCCCTCAATATAAATTTCTCTCACTTATTTAAA”, the “cleaved RNA product abundance” value under setting [1] is 0.122.
Still for that read-out and setting: the value for “ACAGACGAAGGAGCCGCAAAGAAGTAATTAAGGGATGAATAATCCCTCAATATAACTATCTCTCACTTATTTAAA” was 0.215.
With “ACAGACGAAGGAGCCGCAAAGAAGTAATTAAGGGATGAATAATCCCTCAATATAAGTATCTCTCACTTATTTAAA”, the “cleaved RNA product abundance” value under setting [2] was 0.119.
Turning to “ACAGACGAAGGAGCCGCAAAGAAGTAATTAAGGGATGAATAATCCCTCAATATAATTATCTCTCACTTATTTAAA”, the “cleaved RNA product abundance” value runs as follows: under setting [2], 0.151; under setting [1], 0.199.
Take “ACAGACGAAGGAGCCGCAAAGAAGTAATTAAGGGATGAATAATCCCTCAATATAGATATCTCTCACTTATTTAAA”: the “cleaved RNA product abundance” value under setting [1] came out at 0.303.
“ACAGACGAAGGAGCCGCAAAGAAGTAATTAAGGGATGAATAATCCCTCAATATATATATCTCTCACTTATTTAAA”: the “cleaved RNA product abundance” value by setting is: under setting [2], 0.2; under setting [1], 0.278.
Consider “ACAGACGAAGGAGCCGCAAAGAAGTAATTAAGGGATGAATAATCCCTCAATGTAAATATCTCTCACTTATTTAAA”, for which the “cleaved RNA product abundance” value under setting [1] worked out at 0.114.
“ACAGACGAAGGAGCCGCAAAGAAGTAATTAAGGGATGAATAATCCCTCACTATAAATATCTCTCACTTATTTAAA”: the “cleaved RNA product abundance” value stood at 0.135 under setting [2] and 0.168 under setting [1].
Take “ACAGACGAAGGAGCCGCAAAGAAGTAATTAAGGGATGAATAATCCCTCAGTATAAATATCTCTCACTTATTTAAA”: under setting [1], the “cleaved RNA product abundance” value worked out at 0.0878.
On to “ACAGACGAAGGAGCCGCAAAGAAGTAATTAAGGGATGAATAATCCCTCATTATAAATATCTCTCACTTATTTAAA”, for which the “cleaved RNA product abundance” value under setting [1] came out at 0.278.
On the same count and under the same terms, the value for “ACAGACGAAGGAGCCGCAAAGAAGTAATTAAGGGATGAATAATCCCTCCATATAAATATCTCTCACTTATTTAAA” was 0.0749.
With “ACAGACGAAGGAGCCGCAAAGAAGTAATTAAGGGATGAATAATCCCTCGATATAAATATCTCTCACTTATTTAAA”, the “cleaved RNA product abundance” value by setting is: under setting [2], 0.102; under setting [1], 0.155.
In the case of “ACAGACGAAGGAGCCGCAAAGAAGTAATTAAGGGATGAATAATCCCTCTATATAAATATCTCTCACTTATTTAAA”, the “cleaved RNA product abundance” value under setting [1] came out at 0.193.
Same read-out and setting: the value for “ACAGACGAAGGAGCCGCAAAGAAGTAATTAAGGGATGAATAATCCCTGAATATAAATATCTCTCACTTATTTAAA” was 0.253; that for “ACAGACGAAGGAGCCGCAAAGAAGTAATTAAGGGATGAATAATCCGTCAATATAAATATCTCTCACTTATTTAAA” was 0.179.
In the case of “ACAGACGAAGGAGCCGCAAAGAAGTAATTAAGGGATGAATAATCCTTCAATATAAATATCTCTCACTTATTTAAA”, the “cleaved RNA product abundance” value reads like this: under setting [2], 0.188; under setting [1], 0.187.
Turning to “ACAGACGAAGGAGCCGCAAAGAAGTAATTAAGGGATGAATAATCGCTCAATATAAATATCTCTCACTTATTTAAA”, the “cleaved RNA product abundance” value under setting [1] came to 0.0828.
Regarding “ACAGACGAAGGAGCCGCAAAGAAGTAATTAAGGGATGAATAATCTCTCAATATAAATATCTCTCACTTATTTAAA”, the “cleaved RNA product abundance” value by setting is: under setting [2], 0.213; under setting [1], 0.244.
Consider “ACAGACGAAGGAGCCGCAAAGAAGTAATTAAGGGATGAATAATGCCTCAATATAAATATCTCTCACTTATTTAAA”, for which the “cleaved RNA product abundance” value under setting [1] was 0.164.
Same read-out and setting: the same measure for “ACAGACGAAGGAGCCGCAAAGAAGTAATTAAGGGATGAATAATTCCTCAATATAAATATCTCTCACTTATTTAAA”: 0.263; for “ACAGACGAAGGAGCCGCAAAGAAGTAATTAAGGGATGAATACTCCCTCAATATAAATATCTCTCACTTATTTAAA”: 0.324.
On the same count and under the same terms, the value for “ACAGACGAAGGAGCCGCAAAGAAGTAATTAAGGGATGAATATTCCCTCAATATAAATATCTCTCACTTATTTAAA” was 0.293; that for “ACAGACGAAGGAGCCGCAAAGAAGTAATTAAGGGATGAATCATCCCTCAATATAAATATCTCTCACTTATTTAAA” was 0.314.
For “ACAGACGAAGGAGCCGCAAAGAAGTAATTAAGGGATGAATGATCCCTCAATATAAATATCTCTCACTTATTTAAA”, the “cleaved RNA product abundance” value under setting [2] is 0.134.
For “ACAGACGAAGGAGCCGCAAAGAAGTAATTAAGGGATGAATTATCCCTCAATATAAATATCTCTCACTTATTTAAA”, under setting [1], the “cleaved RNA product abundance” value amounted to 0.355.
Consider “ACAGACGAAGGAGCCGCAAAGAAGTAATTAAGGGATGACTAATCCCTCAATATAAATATCTCTCACTTATTTAAA”, for which the “cleaved RNA product abundance” value by setting is: under setting [2], 0.123; under setting [1], 0.289.
On the same counts, the results for “ACAGACGAAGGAGCCGCAAAGAAGTAATTAAGGGATGCATAATCCCTCAATATAAATATCTCTCACTTATTTAAA” are 0.186 and 0.288.
Take “ACAGACGAAGGAGCCGCAAAGAAGTAATTAAGGGATGTATAATCCCTCAATATAAATATCTCTCACTTATTTAAA”: the “cleaved RNA product abundance” value under setting [1] is 0.346.
“ACAGACGAAGGAGCCGCAAAGAAGTAATTAAGGGATTAATAATCCCTCAATATAAATATCTCTCACTTATTTAAA”: the “cleaved RNA product abundance” value under setting [1] turned out to be 0.379.
“ACAGACGAAGGAGCCGCAAAGAAGTAATTAAGGGCTGAATAATCCCTCAATATAAATATCTCTCACTTATTTAAA”: the “cleaved RNA product abundance” value stood at 0.161 under setting [2] and 0.165 under setting [1].
As to “ACAGACGAAGGAGCCGCAAAGAAGTAATTAAGGGGTGAATAATCCCTCAATATAAATATCTCTCACTTATTTAAA”, under setting [1], the “cleaved RNA product abundance” value was determined as 0.308.
“ACAGACGAAGGAGCCGCAAAGAAGTAATTAAGGGTTGAATAATCCCTCAATATAAATATCTCTCACTTATTTAAA”: the “cleaved RNA product abundance” value came to 0.0812 under setting [2] and 0.162 under setting [1].
The like results for “ACAGACGAAGGAGCCGCAAAGAAGTAATTAAGGTATGAATAATCCCTCAATATAAATATCTCTCACTTATTTAAA” were, in that order, 0.0974 and 0.112.
For the sequence “ACAGACGAAGGAGCCGCAAAGAAGTAATTAAGGTATTAATAATCCCTCAATATAAATATCTCTCACTTATTTAAA”, under setting [1], the “cleaved RNA product abundance” value was found to be 0.0968.
For the sequence “ACAGACGAAGGAGCCGCAAAGAAGTAATTAAGTGATGAATAATCCCTCAATATAAATATCTCTCACTTATTTAAA”, the “cleaved RNA product abundance” value under setting [1] came to 0.0789.
Turning to “ACAGACGAAGGAGCCGCAAAGAAGTAATTAATGGATGAATAATCCCTCAATATAAATATCTCTCACTTATTTAAA”, the “cleaved RNA product abundance” value came out at 0.105 under setting [2], 0.121 under setting [1] and 0.0999 under setting [3].
“ACAGACGAAGGAGCCGCAAAGAAGTAATTATGGGATGAATAATCCCTCAATATAAATATCTCTCACTTATTTAAA”: the “cleaved RNA product abundance” value under setting [1] came out at 0.169.
Same read-out and setting: the same measure for “ACAGACGAAGGAGCCGCAAAGAAGTAATTCAGGGATGAATAATCCCTCAATATAAATATCTCTCACTTATTTAAA”: 0.325.
On to “ACAGACGAAGGAGCCGCAAAGAAGTACTTAAGGGATGAATAATCCCTCAATATAAATATCTCTCACTTATTTAAA”, for which, under setting [1], the “cleaved RNA product abundance” value worked out at 0.243.
“ACAGACGAAGGAGCCGCAAAGAAGTATTTAAGGGATGAATAATCCCTCAATATAAATATCTCTCACTTATTTAAA”: the “cleaved RNA product abundance” value under setting [2] was 0.275 and the “cleaved RNA product abundance” value under setting [1] amounted to 0.288.
Consider “ACAGACGAAGGAGCCGCAAAGAAGTCAATAAGGGATGAATAATCCCTCAATATAAATATCTCTCACTTATTTAAA”, for which the “cleaved RNA product abundance” value under setting [1] stood at 0.284.
Still for that read-out and setting: the value for “ACAGACGAAGGAGCCGCAAAGAAGTCATAAAGGGATGAATAATCCCTCAATATAAATATCTCTCACTTATTTAAA” was 0.198; that for “ACAGACGAAGGAGCCGCAAAGAAGTCATGAAGGGATGAATAATCCCTCAATATAAATATCTCTCACTTATTTAAA” was 0.325.
Still for that read-out and setting: the value for “ACAGACGAAGGAGCCGCAAAGAAGTCATTAAAGGATGAATAATCCCTCAATATAAATATCTCTCACTTATTTAAA” was 0.158.
For the sequence “ACAGACGAAGGAGCCGCAAAGAAGTCATTAACGGATGAATAATCCCTCAATATAAATATCTCTCACTTATTTAAA”, the “cleaved RNA product abundance” value under setting [1] stood at 0.128.
For “ACAGACGAAGGAGCCGCAAAGAAGTCATTAAGAGATGAATAATCCCTCAATATAAATATCTCTCACTTATTTAAA”, the “cleaved RNA product abundance” value is, setting by setting: under setting [2], 0.108; under setting [1], 0.137.
In the case of “ACAGACGAAGGAGCCGCAAAGAAGTCATTAAGCGATGAATAATCCCTCAATATAAATATCTCTCACTTATTTAAA”, the “cleaved RNA product abundance” value under setting [1] amounted to 0.0665.

Values taken from the supplement of paper PMC11780869.
